A short description of data set [1]: size exclusion chromatography in 1 mM ADP (monomer state). Background: Size exclusion chromatography separates by hydrodynamic size, large species first.
Data set [2] can be described thus: size exclusion chromatography in 1 mM ATP (dimer state).
A short description of data set [3]: size exclusion chromatography (Superdex S200 Increase) in 1 mM ATP buffer.
A short description of data set [4]: size exclusion chromatography (Superdex S200 Increase) in 1 mM ADP buffer.

B1: human TAP1 NBD comprising N676G, S677N, Q680R, E682Q and Q683R substitutions, substitutions of cysteines with serines (SEQ ID NO:10) and a C-terminal His tag (protein)
chain: GLLTPLHLEGLVQFQDVSFAYPNRPDVLVLQGLTFTLRPGEVTALVGPNGSGKSTVAALLQNLYQPTGGQLLLDGKPLPQYEHRYLHRQVAAVGQEPQVFGRSLQENIAYGLTQKPTMEEITAAAVKSGAHSFISGLPQGYDTEVDEAGSQLSGGQRQAVALARALIRKPSVLILDNATSALDAGNQLRVQRLLYESPERYSRSVLLITQHLSLVEQADHILFLEGGAIREGGTHQQLMEKKGSYWAMVQAPADAPE
As to B1, in data set [1], the “effective molecular weight (SEC) in 1 mM ADP” value is recorded as “in the presence of ADP the protein chromatographs with an effective molecular weight of 37 kDa”. Also, the “effective molecular weight (SEC) in 1 mM ATP” value in data set [2] was “in the presence of ATP the protein chromatographs with an effective molecular weight of 57 kDa”.

B2: TAP1 NBD of SEQ ID NO:87 with a peptide comprising a SpyTag3, TEV protease site and a His tag attached at the C-terminus (protein)
chain: MPPSGLLTPLHLEGLVQFQDVSFAYPNRPDVLVLQGLTFTLRPGEVTALVGPNGSGKSTVAALLQNLYQPTGGQLLLDGKPLPQYEHRYLHRQVAAVGQEPQVFGRSLQENIAYGLTQKPTMEEITAAAVKSGAHSFISGLPQGYDTEVDEAGSQLSGGQRQAVALARALIRKPSVLILDNATSALDAGNQLRVQRLLYESPERYSRSVLLITQHLSLVEQADHILFLEGGAIREGGTHQQLMEKKGSYWAMVQAPADAPE
B2: the “elution volume (SEC) in 1 mM ATP” value in data set [3] is recorded as “The ATP-containing sample eluted at a volume of 15.75 ml”. In addition, in data set [4], the “elution volume (SEC) in 1 mM ADP” value is “the ADP sample eluted at 16.81 ml”.

Values taken from patent US20240254254.
